Experimental findings from patent US20170158753A1 (INTEGRATED BIOTHERAPEUTICS, published 2017) are described below.

Where a chain is given by its changes, count along the chain named.

Assay [1] deals with T1, glycoprotein from Sudan ebolavirus (SUDV) (Sudan ebolavirus (SUDV), UniProt Q66814 33-650).
T1 sequence: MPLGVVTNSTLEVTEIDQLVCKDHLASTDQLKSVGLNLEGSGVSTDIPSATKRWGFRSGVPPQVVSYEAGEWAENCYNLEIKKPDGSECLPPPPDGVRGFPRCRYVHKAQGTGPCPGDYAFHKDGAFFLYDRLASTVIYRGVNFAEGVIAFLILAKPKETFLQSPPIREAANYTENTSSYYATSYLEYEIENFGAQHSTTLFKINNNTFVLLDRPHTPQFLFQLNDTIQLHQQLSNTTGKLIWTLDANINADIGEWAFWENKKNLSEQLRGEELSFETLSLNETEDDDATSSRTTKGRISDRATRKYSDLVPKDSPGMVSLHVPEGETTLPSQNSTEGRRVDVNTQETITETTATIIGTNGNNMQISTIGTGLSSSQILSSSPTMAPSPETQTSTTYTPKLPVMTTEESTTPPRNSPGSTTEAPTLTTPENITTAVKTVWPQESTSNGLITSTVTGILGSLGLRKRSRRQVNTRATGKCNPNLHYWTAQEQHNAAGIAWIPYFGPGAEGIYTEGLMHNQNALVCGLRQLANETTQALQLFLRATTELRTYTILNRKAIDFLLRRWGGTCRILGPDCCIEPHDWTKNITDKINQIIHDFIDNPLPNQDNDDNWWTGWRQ
The assay is described as follows: summary of reactivity by any method (ELISA, Western blot, BIACORE).

Assay [2] has as its target T2, glycoprotein from Marburg virus (MARV; Musoke isolate) (Marburg virus (MARV; Musoke isolate), UniProt P35253 19-648).
T2 sequence: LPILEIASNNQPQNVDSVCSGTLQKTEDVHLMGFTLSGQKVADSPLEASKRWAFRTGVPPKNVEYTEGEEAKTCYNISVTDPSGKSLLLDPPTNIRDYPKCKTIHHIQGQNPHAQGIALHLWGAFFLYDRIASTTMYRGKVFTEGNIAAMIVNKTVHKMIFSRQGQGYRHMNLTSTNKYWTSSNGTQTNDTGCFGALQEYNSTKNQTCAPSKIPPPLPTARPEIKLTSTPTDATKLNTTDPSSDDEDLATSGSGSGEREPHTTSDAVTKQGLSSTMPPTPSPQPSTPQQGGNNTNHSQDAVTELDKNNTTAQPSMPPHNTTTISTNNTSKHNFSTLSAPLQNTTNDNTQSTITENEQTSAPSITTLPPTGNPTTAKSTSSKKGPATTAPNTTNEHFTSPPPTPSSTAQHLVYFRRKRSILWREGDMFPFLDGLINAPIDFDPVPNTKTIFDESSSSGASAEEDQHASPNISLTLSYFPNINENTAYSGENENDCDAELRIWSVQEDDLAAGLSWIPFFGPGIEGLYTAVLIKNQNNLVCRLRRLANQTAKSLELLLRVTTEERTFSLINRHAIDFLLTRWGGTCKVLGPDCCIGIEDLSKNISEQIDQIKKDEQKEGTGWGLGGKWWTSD
The description is as above.

The target of a further assay is T3, EBOV soluble GP (sGP) (Ebola virus (EBOV), UniProt P60170 33-324).
T3 sequence: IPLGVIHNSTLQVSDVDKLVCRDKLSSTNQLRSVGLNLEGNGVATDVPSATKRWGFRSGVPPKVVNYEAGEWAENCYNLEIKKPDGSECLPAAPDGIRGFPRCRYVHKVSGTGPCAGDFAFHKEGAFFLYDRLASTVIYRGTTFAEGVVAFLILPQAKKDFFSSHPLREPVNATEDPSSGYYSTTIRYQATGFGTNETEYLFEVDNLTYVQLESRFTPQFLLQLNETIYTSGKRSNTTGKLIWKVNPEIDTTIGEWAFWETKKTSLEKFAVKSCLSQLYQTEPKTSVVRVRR
Briefly: ELISA on EBOV soluble GP (sGP), OD650 against nM mAb.

In assay [3] the target is T4, glycoprotein from Reston ebolavirus (RESTV) (Reston ebolavirus (RESTV), UniProt Q66799 34-651).
T4 sequence: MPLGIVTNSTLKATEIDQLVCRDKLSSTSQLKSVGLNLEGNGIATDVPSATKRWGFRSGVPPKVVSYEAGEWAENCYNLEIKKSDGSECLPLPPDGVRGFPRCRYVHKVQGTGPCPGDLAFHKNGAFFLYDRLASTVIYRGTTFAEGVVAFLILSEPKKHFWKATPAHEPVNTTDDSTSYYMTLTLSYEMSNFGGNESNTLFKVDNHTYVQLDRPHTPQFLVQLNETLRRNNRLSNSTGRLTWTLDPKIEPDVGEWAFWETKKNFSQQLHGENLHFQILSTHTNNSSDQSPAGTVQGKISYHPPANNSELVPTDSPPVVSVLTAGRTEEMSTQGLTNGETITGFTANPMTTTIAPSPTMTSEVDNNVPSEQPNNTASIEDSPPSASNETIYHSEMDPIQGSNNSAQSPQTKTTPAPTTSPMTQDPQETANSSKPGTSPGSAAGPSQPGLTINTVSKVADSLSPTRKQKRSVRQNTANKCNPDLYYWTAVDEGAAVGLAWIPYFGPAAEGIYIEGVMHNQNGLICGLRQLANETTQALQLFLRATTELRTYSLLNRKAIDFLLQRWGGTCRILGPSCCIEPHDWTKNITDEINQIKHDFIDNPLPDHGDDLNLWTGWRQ
Briefly: summary of reactivity by any method (ELISA, Western blot, BIACORE).

B1: m16G8 (antibody, V domains shown)
VH: EVQLQESGPGLVKPGASVKISCKASGYSFTGYYMNWVKQSPEKSLEWIGEINPSTGGTTYNQKFKAKATLTVDKSSSTAYMQLKSLTSEDSAVYYCVRYSHYYGSGSWYFDVWGTGTTVTVSS
VL: DIQMTQSPASLSASVGETVTITCRASENIYSNLAWYQQKQGKSPQLLVNAATNLADGVPSRFSGSGSGTQFSLKINSLQPEDFGSYYCQHFYVTPYMFGSGTKLEIKR
As to B1, the binding result in assay [1] is “binds”; in assay [2] it was “no binding”; with EBOV soluble GP (sGP), “no binding (tested: about 67 nM (last point; axis to 100 nM))”.

B2: m2E4 (antibody, V domains shown)
VH: B1 VH with G10E
VL: B1 VL with M97T
Take B2: in assay [2], the binding result is recorded as “no binding”.

B3: m2D8 (antibody, V domains shown)
VH: EVQLQESGGELVRPGTSVKISCKASGYTFTNFWLGWIKERPGHGLEWIGDIYPGGHYTNYNENFKGKATLTADTSSNTAYMQVSSLTSEDSAVYFCFTQYYDMDYWGQGTSVTVSS
VL: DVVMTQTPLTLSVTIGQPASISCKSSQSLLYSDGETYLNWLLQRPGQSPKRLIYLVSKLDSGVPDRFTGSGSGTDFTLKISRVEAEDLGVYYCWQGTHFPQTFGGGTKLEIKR
On to B3, for which the binding result in assay [1] and in assay [2] was “binds” each time.

B4: m8C4 (antibody, V domains shown)
VH: EVQLQESGPELKKPGETVKISCKASGYTFTTYGMSWVKQAPGKGLKWMGRINTYSGVPTYADEFKGRFAFSLENSASTAYLQINNLKNEDTATYFCARGDGGHWFANWGQGTLVTVSA
VL: DIQMTQSPSSLSASLGGKVTITCKASQDINKNIAWYQHKPGKGPRLLIWYKSALQPGIPSRFSGSGSGRDYSFSISNLEPEDIATYSCLQYDNLPPTFGGGTKLEIKR
B4: the binding result in assay [3] and in assay [2] was “no binding” each time. For the same molecule, in the assay with EBOV soluble GP (sGP), the half-maximal effective concentration (EC50) came to 10.3 nM.

B5: m17C6 (antibody, V domains shown)
VH: EVQLQESGPGLVQPSQSLSITCTVSGFSLTSYGVHWVRQSPGKGLEWLGVIWSGGSTDYNAAFISRLSISKDNSKSQVFFKMNSLQADDTAIYYCARNWFDYDNYYSMDYWGQGTSVTVSS
VL: DIQMTQTTSSLSASLGDRVTISCRASQDISNYLNWYQQKPDGTVKLLIYYTSRLHSGVPSRFSGSGSGTDFSLTISNQEPEDIATYYCQQYSNLPWTFGGGTKLEIKR
Turning to B5, the binding result in assay [1] is on record as “binds”. This molecule also returned a concentration giving a half-maximal response (EC50) with EBOV soluble GP (sGP) of 0.4 nM.

B6: m21B2 (antibody, V domains shown)
VH: EVQLQESGAELVRPGASVTLSCKTSGYTFTDYEMHWVKQTPVHGLEWIGAIDPETGGTAYNQKFKGKATLTADKSSSTAYMELSRLTSEDSAVYYCTGNYATDYWGQGTSVTVSS
VL: DIVMSQSPSSLAVSAGEKVTMSCKSSQSLFNSRSRKNYLAWYQLKPGQSPKLLIYWASTRESGVPDRFTGSGSGTDFTLTISSVQAEDLAVYYCKQSNYLWTFGGGTKLEIKR
Turning to B6, the binding result in assay [2] is reported as “binds”.
